Measurements from article PMC6579771.

Biological target: S2-AAL, monovalent form of Aleuria aurantia lectin (Aleuria aurantia)
Experiment: microfluidic displacement assay with fluorescence detection; S2-AAL immobilised on the PDMS/glass microchannel (APTES, glutaraldehyde), blocked with BSA; labeled lactoferrin 0.15 mg/ml in PBS perfused, washed with PBS; then fucose in PBS or PBS alone at 0.1 ul/min; fluorescence at the …

Human lactoferrin isolated from breast milk, labeled with DyLight 488 (natural protein)
% of initial fluorescence intensity left after 10 min perfusion with PBS only: 99%
